The values below come from PMC12302554.

Data set [1] deals with BCMA-CD19-His fusion protein (bispecific BC19 CAR ectodomain: anti-BCMA scFv + humanized anti-CD19 scFv + hinge). Description: SPR. The conditions noted are these: multi-cycle kinetics, 1:1 fit, 7.8-125 nM aptamer; SPR: Biacore 1K, CM5 chip, protein coupled at 20 ug/mL in sodium acetate pH 5.0 (running buffer not given); cell binding: D-PBS, 4.5 g/L glucose, 5 mM MgCl2, 0.
The subject of data set [2] is BC19 CAR on CAR-T cells (anti-BCMA scFv, humanized anti-CD19 scFv, hinge). In words: flow cytometry. The conditions noted are these: SPR: Biacore 1K, CM5 chip, protein coupled at 20 ug/mL in sodium acetate pH 5.0 (running buffer not given); cell binding: D-PBS, 4.5 g/L glucose, 5 mM MgCl2, 0. For orientation: In flow cytometry, cells or beads pass a laser one at a time.

By Kd is commonly meant the constant that tells how readily two partners part at equilibrium. For “TTCAGCACTCCACGCATAGCACGCTGCCGTGTGCTGCATGTGGTCGTGTGTCCGTGCCTATGCGTGCTACCGTGAA [Aptamer A3]”, the Kd in data set [1] came to 37 nM.

Regarding “TTCAGCACTCCACGCATAGCACGCTGCCGTGTGCTGCATGTGGTCGTGTGTCCGTGCCTATGCGTGCTACCGTGAA [FAM-Aptamer A3]”, the equilibrium dissociation constant (Kd) in data set [2] was 17 nM.
